Data: article doi:10.1101/2021.05.31.446396 (bioRxiv, 2021)

Molecular target: the molecule itself
Experiment: SEC

Protein | stoichiometry N
D2 domain of EccCb1 (35-316 residues), wild type (domain or fragment) NPVPLNELIARDRRQPLRFALGIMDEPRRHLQDVWGVDVSGAGGNIGIGGAPQTGKSTLLQTMVMSAAATHSPRNVQFYCIDLGGGGLIYLENLPHVGGVANRSEPDKVNRVVAEMQAVMRQRETTFKEHRVGSIGMYRQLRDDPSQPVASDPYGDVFLIIDGWPGFVGEFPDLEGQVQDLAAQGLAFGVHVIISTPRWTELKSRVRDYLGTKIEFRLGDVNETQIDRITREIPANRPGRAVSMEKHHLMIGVPRFDGVHSADNLVEAITAGVTQIASQHTE | 2
D2 domain of EccCb1 (35-316 residues), T92A mutant (domain or fragment) NPVPLNELIARDRRQPLRFALGIMDEPRRHLQDVWGVDVSGAGGNIGIGGAPQTGKSALLQTMVMSAAATHSPRNVQFYCIDLGGGGLIYLENLPHVGGVANRSEPDKVNRVVAEMQAVMRQRETTFKEHRVGSIGMYRQLRDDPSQPVASDPYGDVFLIIDGWPGFVGEFPDLEGQVQDLAAQGLAFGVHVIISTPRWTELKSRVRDYLGTKIEFRLGDVNETQIDRITREIPANRPGRAVSMEKHHLMIGVPRFDGVHSADNLVEAITAGVTQIASQHTE | 2
D2 domain of EccCb1 (35-316 residues), S91A mutant (domain or fragment) NPVPLNELIARDRRQPLRFALGIMDEPRRHLQDVWGVDVSGAGGNIGIGGAPQTGKATLLQTMVMSAAATHSPRNVQFYCIDLGGGGLIYLENLPHVGGVANRSEPDKVNRVVAEMQAVMRQRETTFKEHRVGSIGMYRQLRDDPSQPVASDPYGDVFLIIDGWPGFVGEFPDLEGQVQDLAAQGLAFGVHVIISTPRWTELKSRVRDYLGTKIEFRLGDVNETQIDRITREIPANRPGRAVSMEKHHLMIGVPRFDGVHSADNLVEAITAGVTQIASQHTE | 2
D2 domain of EccCb1 (35-316 residues), Q87A mutant (domain or fragment) NPVPLNELIARDRRQPLRFALGIMDEPRRHLQDVWGVDVSGAGGNIGIGGAPATGKSTLLQTMVMSAAATHSPRNVQFYCIDLGGGGLIYLENLPHVGGVANRSEPDKVNRVVAEMQAVMRQRETTFKEHRVGSIGMYRQLRDDPSQPVASDPYGDVFLIIDGWPGFVGEFPDLEGQVQDLAAQGLAFGVHVIISTPRWTELKSRVRDYLGTKIEFRLGDVNETQIDRITREIPANRPGRAVSMEKHHLMIGVPRFDGVHSADNLVEAITAGVTQIASQHTE | 2
D2 domain of EccCb1 (35-316 residues), K90A mutant (domain or fragment) NPVPLNELIARDRRQPLRFALGIMDEPRRHLQDVWGVDVSGAGGNIGIGGAPQTGASTLLQTMVMSAAATHSPRNVQFYCIDLGGGGLIYLENLPHVGGVANRSEPDKVNRVVAEMQAVMRQRETTFKEHRVGSIGMYRQLRDDPSQPVASDPYGDVFLIIDGWPGFVGEFPDLEGQVQDLAAQGLAFGVHVIISTPRWTELKSRVRDYLGTKIEFRLGDVNETQIDRITREIPANRPGRAVSMEKHHLMIGVPRFDGVHSADNLVEAITAGVTQIASQHTE | 2
D3 domain of EccCb1 (349-580 residues), wild type (domain or fragment) EIPIGLRETDLTPAHCHMHTNPHLLIFGAAKSGKTTIAHAIARAICARNSPQQVRFMLADYRSGLLDAVPDTHLLGAGAINRNSASLDEAVQALAVNLKKRLPPTDLTTAQLRSRSWWSGFDVVLLVDDWHMIVGAAGGMPPMAPLAPLLPAAADIGLHIIVTCQMSQAYKATMDKFVGAAFGSGAPTMFLSGEKQEFPSSEFKVKRRPPGQAFLVSPDGKEVIQAPYIEPP | 2
